Source: publication PMC6680207, “ZmpTAC12 binds single‐stranded nucleic acids and is essential for accumulation of the plastid‐encoded polymerase complex in maize”

Legend:
rMBP-pTAC12 (ZmpTAC12) [1] = molecular target: T1, rMBP-pTAC12 (ZmpTAC12) (Zea mays, UniProt B4FZ81 72-555); experiment: EMSA; c. 100 pM probe; EMSA; 1 ug/ul heparin (ssRNA assays), c. 100 pM radiolabeled 50mer; buffer, salt, pH and temperature not in the material; conditions: protein: recombinant; tags: N-terminal MBP fusion; label: 5' end radiolabel (T4 PNK)
T1 sequence: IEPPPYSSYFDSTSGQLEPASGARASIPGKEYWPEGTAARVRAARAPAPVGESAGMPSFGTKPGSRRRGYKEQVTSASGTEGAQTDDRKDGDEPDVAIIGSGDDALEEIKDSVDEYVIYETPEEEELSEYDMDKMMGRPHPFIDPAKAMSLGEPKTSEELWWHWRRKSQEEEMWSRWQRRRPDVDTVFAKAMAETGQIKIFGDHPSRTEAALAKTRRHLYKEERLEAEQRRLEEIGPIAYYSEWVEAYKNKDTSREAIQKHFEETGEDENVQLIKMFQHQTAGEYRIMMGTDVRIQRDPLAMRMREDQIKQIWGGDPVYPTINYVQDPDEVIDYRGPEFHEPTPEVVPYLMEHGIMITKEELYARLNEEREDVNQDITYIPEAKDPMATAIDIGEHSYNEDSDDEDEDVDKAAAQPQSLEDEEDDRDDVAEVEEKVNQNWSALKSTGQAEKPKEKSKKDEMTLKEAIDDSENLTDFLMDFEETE

rMBP-pTAC12 (ZmpTAC12) [2] = molecular target: T1, rMBP-pTAC12 (ZmpTAC12); experiment: EMSA; 100 pM dsDNA; EMSA; 1 ug/ul heparin (ssRNA assays), c. 100 pM radiolabeled 50mer; buffer, salt, pH and temperature not in the material; conditions: protein: recombinant; tags: N-terminal MBP fusion; label: 5' end radiolabel (T4 PNK); blunt
rMBP-pTAC12 (ZmpTAC12) [3] = molecular target: T1, rMBP-pTAC12 (ZmpTAC12); experiment: EMSA; 1 ug/ul heparin; c. 100 pM probe; EMSA; 1 ug/ul heparin (ssRNA assays), c. 100 pM radiolabeled 50mer; buffer, salt, pH and temperature not in the material; conditions: protein: recombinant; tags: N-terminal MBP fusion; label: radiolabeled

TAATTGCTCCAGTGAATAACTAAAAAAAAAAATAGAAGGACGGTAGATAG (ssDNA) [psaAB-150 ssDNA]
binding result (rMBP-pTAC12 (ZmpTAC12) [1]): binds

B1: psaAB-150 dsDNA (dsDNA)
DNA 1: TAATTGCTCCAGTGAATAACTAAAAAAAAAAATAGAAGGACGGTAGATAG
DNA 2: CTATCTACCGTCCTTCTATTTTTTTTTTTAGTTATTCACTGGAGCAATTA
binding result (rMBP-pTAC12 (ZmpTAC12) [2]): no binding

B2: psaAB-150 ssRNA (ssRNA)
RNA: GGUAAUUGCUCCAGUGAAUAACUAAAAAAAAAAAUAGAAGGACGGUAGAUAG
binding result (rMBP-pTAC12 (ZmpTAC12) [3]): binds
